Assay results as given in patent US11370825B2, “Polypeptides, cells, and methods involving engineered CD16” (Regents of the University of Minnesota, priority 2014, dated 2022).
Numbering of substitutions follows the chain as printed. Names and notes keep the numbering of the source.

B1: CD16b: Wild-type human IgG Fc receptor CD16b (FcγRIIIb), NA1 allelic variant, recombinant comparator (protein, listed as Homo sapiens)
chain: MWQLLLPTALLLLVSAGMRTEDLPKAVVFLEPQWYRVLEKDSVTLKCQGAYSPEDNSTQWFHNENLISSQASSYFIDAATVDDSGEYRCQTNLSTLSDPVQLEVHVGWLLLQAPRWVFKEEDPIHLRCHSWKNTALHKVTYLQNGKDRKYFHHNSDFHIPKATLKDSGSYFCRGLVGSKNVSSETVNITITQGLAVSTISSFS
B2: CD16b/S197P: Human CD16b (FcγRIIIb, SEQ ID NO:2, NA1 variant) with serine-197 substituted by proline; expressed in HEK293 cells (protein, listed as Homo sapiens)
chain: B1 chain with S197P

Key:
ADAM17 [1] = assay: Soluble CD16b released from transfected HEK293 cells, ELISA of media supernatant (shedding); type: cell-based, human
Protocol: (§1) FIG. 3. Effects of the engineered S197P mutation on CD16a and CD16b shedding. Transfected HEK293 (human embryonic kidney) cells separately expressed CD16b and CD16b/S197P (A) or CD16a and CD16a/S197P (B) at similar levels, as determined by flow cytometry (left panels). The different transfectants were treated with or without PMA (15 ng/ml for 30 minutes at 37° C.) and soluble levels of CD16 in the media supernatant were quantified by ELISA (right panels). Each treatment condition was repeated three times for each experiment and the data are representative of three independent experiments. Bar graphs show mean±SD. Statistical significance is indicated as ***P<0.001. (C) Transfected HEK293 cells expressed L-selectin (CD62L) or L-selectin and CD16b/S197P. Surface levels of L-selectin and CD16b/S197P on transfected and mock-transfected cells were measured using flow cytometry (histogram plots). Transfectants expressing L-selectin or L-selectin and CD16b/S197P were incubated in the presence or absence of PMA for 30 minutes at 37° C., and the mean fluorescence intensity (MFI) of L-selectin staining determined (bar graph). Each treatment condition was repeated three times for each experiment and the data are representative of two independent experiments. Bar graphs show mean±SD. Statistical significance is indicated as *P<0.05. For all histogram plots, the x-axis=Log 10 fluorescence and the y-axis=cell number.
HEK293 cells (a human embryonic kidney cell line) and NK92 cells (a human NK cell line) (ATCC, Manassas, Va.) were cultured according to the depository's instructions. HEK293 cells were transiently transfected with pcDNA3.1 with or without CD16b, CD16b/S197P, and/or L-selectin using Lipofectamine 2000 (Invitrogen, Carlsbad, Calif.) according to the manufacturer's instructions. HEK293 cells stably expressing human FcRγ were transiently transfected with pcDNA3.1 with or without CD16a or CD16a/S197P by the same approach. NK92 cells were stably transduced with pBMN-IRES-EGFP with or without CD16a or CD16a/S197P by retrovirus generation and infection procedures described previously (Matala et al., 2001, J Immunol. 167:1617-1623; Walcheck et al., 2003, J Leukoc Biol. 74:389-394; Wang et al., 2009, J Immunol. 182:2449-2457). Construct expression was assessed by EGFP fluorescence and CD16 staining, as determined by flow cytometry. Human iPSCs (UCBiPS7, derived from umbilical cord blood CD34 cells) were maintained on mouse embryonic fibroblasts (Knorr et al., 2013, Stem Cells Transl Med. 2:274-283; Ni et al., 2014, Stem Cells 32:1021-1031). Stable expression of CD16a or CD16a/S197P was performed using a Sleeping Beauty transposon system as previously described (Wilber et al., 2007, Stem Cells 25:2919-2927; Tian et al., 2009, Stem Cells 27:2675-2685). […]

ADAM17 [2] = assay: L-selectin surface down-regulation in HEK293 transfectants expressing or lacking CD16b/S197P (ADAM17 activity control); type: cell-based, human; settings: HEK293 cells expressing versus lacking CD16b/S197P; PMA 30 minutes at 37° C.
Protocol: as §1, with “(C) Transfected HEK293 cells expressed L-selectin (CD62L) or L-selectin and CD16b/S197P.” left out, “Each treatment condition was repeated three times for each experiment and the data are representative of two independent experiments. Bar graphs show mean±SD. Statistical significance is indicated as *P<0.05.” left out
HEK293 cells (a human embryonic kidney cell line) and NK92 cells (a human NK cell line) (ATCC, Manassas, Va.) were cultured according to the depository's instructions. […] Construct expression was assessed by EGFP fluorescence and CD16 staining, as determined by flow cytometry. […]

[3] = HEK293 transfectants treated with PMA 15 ng/ml for 30 minutes at 37° C.
[4] = untreated transfected HEK293 cells

Molecule | soluble levels of CD16 in media supernatant (ADAM17 [1]; [3]) | soluble levels of CD16 in media supernatant (ADAM17 [1]; [4]) | L-selectin down-regulation following activation with PMA (ADAM17 [2])
B1 | increased further | High levels | –
B2 | markedly lower | markedly lower | similarly down-regulated
